The source of these data is patent publication US20250051460A1.

This test addresses human VEGF-A (human) (UniProt P15692). Nature of the test: cell-based or functional assay.

EYLEA (aflibercept) (Fc fusion), sequence (chain): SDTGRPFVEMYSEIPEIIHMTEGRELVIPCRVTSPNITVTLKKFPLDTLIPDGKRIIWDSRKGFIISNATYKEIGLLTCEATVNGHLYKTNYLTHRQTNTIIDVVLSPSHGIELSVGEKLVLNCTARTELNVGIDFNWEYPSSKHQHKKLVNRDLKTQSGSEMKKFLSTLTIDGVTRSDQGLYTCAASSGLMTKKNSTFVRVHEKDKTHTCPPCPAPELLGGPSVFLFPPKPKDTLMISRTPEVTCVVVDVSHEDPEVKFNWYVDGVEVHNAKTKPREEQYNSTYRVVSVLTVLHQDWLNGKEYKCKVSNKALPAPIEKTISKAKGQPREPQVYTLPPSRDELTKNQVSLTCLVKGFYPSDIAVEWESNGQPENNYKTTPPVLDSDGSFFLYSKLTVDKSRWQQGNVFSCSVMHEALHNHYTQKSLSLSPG
human VEGF-A (human), sequence (P15692 other isoform, or with tags, fused parts or gaps limits assumed): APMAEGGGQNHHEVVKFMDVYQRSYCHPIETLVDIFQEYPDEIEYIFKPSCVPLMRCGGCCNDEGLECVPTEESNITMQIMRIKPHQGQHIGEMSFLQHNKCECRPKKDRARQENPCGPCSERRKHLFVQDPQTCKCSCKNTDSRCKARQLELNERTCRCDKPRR

With EYLEA (aflibercept) (Fc fusion), the ERK1/2 phosphorylation: Bottom plateau (AlphaLISA counts) (AlphaLISA counts) came to 21700; the ERK1/2 phosphorylation: Top plateau (AlphaLISA counts) (AlphaLISA counts) came out at 109000; the HRMEC proliferation, delta area under the curve vs. basal: Top plateau (arbitrary units) (arbitrary units) was determined as 129; the HRMEC proliferation: Bottom plateau (arbitrary units) (arbitrary units) was determined as 13.3. Also, the HRMEC proliferation: IC50 (pM) stood at 171 pM, the HRMEC proliferation: LogIC50 was -9.77, the IC50 (p38 MAPK phosphorylation) came out at 0.74 nM and the Src phosphorylation (Y419): Bottom plateau (AlphaLISA counts) (AlphaLISA counts) stood at 2210. Further, the Src phosphorylation (Y419): IC50 came out at 0.933 nM, the Src phosphorylation (Y419): LogIC50 is -9.37, the Src phosphorylation (Y419): Top plateau (AlphaLISA counts) (AlphaLISA counts) stood at 3420 and the inhibition of VEGF-induced HRMEC proliferation stood at 16 nM. The p38-MAPK phosphorylation (T180/Y182): Bottom plateau (AlphaLISA counts) (AlphaLISA counts) is 8890, the p38-MAPK phosphorylation (T180/Y182): IC50 amounted to 0.748 nM, the p38-MAPK phosphorylation (T180/Y182): LogIC50 is -9.13 and the p38-MAPK phosphorylation (T180/Y182): Top plateau (AlphaLISA counts) (AlphaLISA counts) was 23100.
